US20250163410

Tested on: VchCAST TnsB transposase (Tn6677; assayed with TnsA-TnsC and TniQ-Cascade) (Vibrio cholerae)
Assay: cell_activity
Settings: for binding signal: no IPTG

Row | Sequence | binding signal (T-RL) [fold vs WT] | also measured
1 | ACATTTTTTGATACAACCATAAAATGATAATTACACCCATAAATTGATAATTATCACACCCATAAATTGATATTGCCTCTGATCATAGTCAGACCAACATTGCTACGACCCGTATTCGCACCGACAC (double strand) [Right end variant 1066] |  | binding signal (log2 fold vs WT) (T-RL, second replicate -1.9162): -2.48
2 | AATGTTGTTGATGCAACCATAAAGTGATATTTAATAATTATTTATAATCAGCAACTTAACCACAAAACAACCATATATTCATATCTCACAAAACAACCATAAGTTGATATTTTTGTGAATCGAGTATTTCAGCAAAACTACTGCAGTAAGAA (double strand) [Left end variant 3243] |  | binding signal (log2 fold vs WT) (T-RL, second replicate -1.5930): -2.53
3 | ACATTTGTTGATACAACCATAAAATGATAATTACACCCATAAATTGATAATTATCACACCCATAAATTGATATTGCCTCTCGCGAGAGGCCGGCAGCCGTCTGGCGTCGGGTGGCGGGCACCGACAC (double strand) [Right end hyperactive 2697] | 2.03 | 
4 | AATGTTGTTGATGCAACCATAAAGTGATATTTAATAATTATTTATAATCAGCAACTTAACCACAAAACAACCATATATTGATATCTCACAAAACAACCATAAGTTGATATTTTTGTGAATAGGATATTCCAACCTTCATAGTTTAGTAAGAA (double strand) [Left end hyperactive 4673] | 1.53 | 
5 | ACATTTGTTGATACAACCATAAAATCATAATTACACCCATAAATTGATAATTATCACACCCATAAATTGATATTGCCTCTGATCATAGTCAGACCAACATTGCTACGACCCGTATTCGCACCGACAC (double strand) [Right end variant 1010] |  | binding signal (log2 fold vs WT) (T-RL, second replicate -1.5090): -1.91
6 | ACATTTGTTGATACAACCATAAAATGATAATTACACCCATAAATTGATAATTATCACACCCATAAATTGATATTGCCTCTGATCAGGAATTGTGAGCGGATAACAATTTAGTCAGACGCACCGACAC (double strand) [Right end hyperactive 2693] | 2.05 | 
7 | TGTGGATACAACCATAAAATGATAATTACACCCATAAATGGATCATTATCACCCCCA (double strand) [Right end ORF1a] |  | binding signal (log2 fold vs WT) (T-RL integration, second replicate -1.08): -1.47
8 | ACATTTGTTGATACAACCATAAAATGATAATTACACCCATAAATTGATAATTATCACACCCATAAATTGATATTGCCTCTTTATGCAGGACGACGTACGCGTTCCATATAAACCTGTGCACCGACAC (double strand) [Right end hyperactive 2696] | 1.83 | 
